The labels stand for the following.
B2: β-catenin•Ecyto complex (complex)
chain 1: MATQADLMELDMAMEPDRKAAVSHWQQQSYLDSGIHSGATTTAPSLSGKGNPEEEDVDTSQVLYEWEQGFSQSFTQEQVADIDGQYAMTRAQRVRAAMFPETLDEGMQIPSTQFDAAHPTNVQRLAEPSQMLKHAVVNLINYQDDAELATRAIPELTKLLNDEDQVVVNKAAVMVHQLSKKEASRHAIMRSPQMVSAIVRTMQNTNDVETARCTAGTLHNLSHHREGLLAIFKSGGIPALVKMLGSPVDSVLFYAITTLHNLLLHQEGAKMAVRLAGGLQKMVALLNKTNVKFLAITTDCLQILAYGNQESKLIILASGGPQALVNIMRTYTYEKLLWTTSRVLKVLSVCSSNKPAIVEAGGMQALGLHLTDPSQRLVQNCLWTLRNLSDAATKQEGMEGLLGTLVQLLGSDDINVVTCAAGILSNLTCNNYKNKMMVCQVGGIEALVRTVLRAGDREDITEPAICALRHLTSRHQEAEMAQNAVRLHYGLPVVVKLLHPPSHWPLIKATVGLIRNLALCPANHAPLREQGAIPRLVQLLVRAHQDTQRRTSMGGTQQQFVEGVRMEEIVEGCTGALHILARDVHNRIVIRGLNTIPLFVQLLYSPIENIQRVAAGVLCELAQDKEAAEAIEAEGATAPLTELLHSRNEGVATYAAAVLFRMSEDKPQDYKKRLSVELTSSLFRTEPMAWNETADLGLDIGAQGEALGYRQDDPSYRSFHSGGYGQDALGMDPMMEHEMGGHHPGADYPVDGLPDLGHAQDLMDGLPPGDSNQLAWFDTDL
chain 2: not shown
notes: β-catenin, murine; cytoplasmic domain of E-cadherin (Ecyto); also called E-cadherin•β-catenin complex; cadherin•β-catenin
B5: αE-catenin R551A (full-length) (natural protein, murine, UniProt P26231 1-906, looked up)
chain: MTAVHAGNINFKWDPKSLEIRTLAVERLLEPLVTQVTTLVNTNSKGPSNKKRGRSKKAHVLAASVEQATENFLEKGDKIAKESQFLKEELVVAVEDVRKQGDLMKSAAGEFADDPCSSVKRGNMVRAARALLSAVTRLLILADMADVYKLLVQLKVVEDGILKLRNAGNEQDLGIQYKALKPEVDKLNIMAAKRQQELKDVGNRDQMAAARGILQKNVPILYTASQACLQHPDVAAYKANRDLIYKQLQQAVTGISNAAQATASDDAAQHQGGSGGELAYALNNFDKQIIVDPLSFSEERFRPSLEERLESIISGAALMADSSCTRDDRRERIVAECNAVRQALQDLLSEYMGNAGRKERSDALNSAIDKMTKKTRDLRRQLRKAVMDHVSDSFLETNVPLLVLIEAAKNGNEKEVKEYAQVFREHANKLIEVANLACSISNNEEGVKLVRMSASQLEALCPQVINAALALAAKPQSKLAQENMDLFKEQWEKQVRVLTDAVDDITSIDDFLAVSENHILEDVNKCVIALQEKDVDGLDRTAGAIRGRAAAVIHVVTSEMDNYEPGVYTEKVLEATKLLSNTVMPRFTEQVEAAVEALSSDPAQPMDENEFIDASRLVYDGIRDIRKAVLMIRTPEELDDSDFETEDFDVRSRTSVQTEDDQLIAGQSARAIMAQLPQEQKAKIAEQVASFQEEKSKLDAEVSKWDDSGNDIIVLAKQMCMIMMEMTDFTRGKGPLKNTSDVISAAKKIAEAGSRMDKLGRTIADHCPDSACKQDLLAYLQRIALYCHQLNICSKVKAEVQNLGGELVVSGVDSAMSLIQAAKNLMNAVVQTVKASYVASTKYQKSQGMASLNLPAVSWKMKAPEKKPLVKREKQDETQTKIKRASQKKHVNPVQALSEFKAMDSI
notes: αE-catenin, murine, full length, with the point mutation R551A; Used in ITC (monomer in the cell); also called R551A αE-catenin; R551A mutant; source: E. coli BL21, purified (glutathione-agarose, TEV cleavage, Mono Q, SEC); monomer used; not shown: GST, N-terminal, cleaved

For series [1], the target named is B5. The series can be described thus: ITC; VP-ITC; αE-catenin monomer (or its complex) in the cell at 8–11 μM, binding partner injected at 70–155 μM; 20 mM HEPES pH 8.0, 150 mM NaCl, 1 mM DTT; 25 °C. As to conditions: both partners purified. For orientation: Isothermal titration calorimetry measures the heat released or taken up as one component is titrated into another.

For series [2], the target named is T1, αE-catenin R551A•β-catenin•Ecyto complex (murine | , UniProt P26231 1-906; Q02248 1-781; P09803 734-884, R551A).
T1 construct: αE-catenin, murine, full length, with the point mutation R551A; β-catenin, murine; cytoplasmic domain of E-cadherin (Ecyto); Ternary complex placed in the ITC cell; also called ternary E-cadherin•β-catenin•αE-catenin R551A mutant complex; source: αE-catenin R551A: E. coli BL21, purified; not shown: GST, N-terminal, cleaved; copies: + +
T1 sequence (P09803 734-884, stated change not applied, one chain of several): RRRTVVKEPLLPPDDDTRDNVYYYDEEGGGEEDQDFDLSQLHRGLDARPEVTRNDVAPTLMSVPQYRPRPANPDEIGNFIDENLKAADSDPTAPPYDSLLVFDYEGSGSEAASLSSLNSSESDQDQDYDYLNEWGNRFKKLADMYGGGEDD
The description is as above. As to conditions: both partners purified.

Series [3] deals with the molecule itself. Description: crystal structure; αE-catenin 82–883 (C116S) dimer, 4.0 Å, crystals not dehydrated.
Series [4] has as its target B2. Description: ITC; VP-ITC; αE-catenin monomer (or its complex) in the cell at 8–11 μM, binding partner injected at 70–155 μM; 20 mM HEPES pH 8.0, 150 mM NaCl, 1 mM DTT; 25 °C. As to conditions: both partners purified.

B1: β-catenin (natural protein, murine, UniProt Q02248 1-781, looked up)
chain: MATQADLMELDMAMEPDRKAAVSHWQQQSYLDSGIHSGATTTAPSLSGKGNPEEEDVDTSQVLYEWEQGFSQSFTQEQVADIDGQYAMTRAQRVRAAMFPETLDEGMQIPSTQFDAAHPTNVQRLAEPSQMLKHAVVNLINYQDDAELATRAIPELTKLLNDEDQVVVNKAAVMVHQLSKKEASRHAIMRSPQMVSAIVRTMQNTNDVETARCTAGTLHNLSHHREGLLAIFKSGGIPALVKMLGSPVDSVLFYAITTLHNLLLHQEGAKMAVRLAGGLQKMVALLNKTNVKFLAITTDCLQILAYGNQESKLIILASGGPQALVNIMRTYTYEKLLWTTSRVLKVLSVCSSNKPAIVEAGGMQALGLHLTDPSQRLVQNCLWTLRNLSDAATKQEGMEGLLGTLVQLLGSDDINVVTCAAGILSNLTCNNYKNKMMVCQVGGIEALVRTVLRAGDREDITEPAICALRHLTSRHQEAEMAQNAVRLHYGLPVVVKLLHPPSHWPLIKATVGLIRNLALCPANHAPLREQGAIPRLVQLLVRAHQDTQRRTSMGGTQQQFVEGVRMEEIVEGCTGALHILARDVHNRIVIRGLNTIPLFVQLLYSPIENIQRVAAGVLCELAQDKEAAEAIEAEGATAPLTELLHSRNEGVATYAAAVLFRMSEDKPQDYKKRLSVELTSSLFRTEPMAWNETADLGLDIGAQGEALGYRQDDPSYRSFHSGGYGQDALGMDPMMEHEMGGHHPGADYPVDGLPDLGHAQDLMDGLPPGDSNQLAWFDTDL
notes: β-catenin, murine; also called murine β-catenin
What is called Kd is the free concentration of one partner at which half of the binding sites on the other are occupied at equilibrium, for simple one-to-one binding. Read a high Kd as lower affinity. In series [1], B1 had a Kd of 78 nM and a dH of -33.3 kcal/mol. With B2, the dH in series [1] is -32.3 kcal/mol.

B3: vinculin D1 domain (residues 1–259) (domain or fragment, chicken, UniProt P12003 1-259, looked up)
chain: MPVFHTRTIESILEPVAQQISHLVIMHEEGEVDGKAIPDLTAPVSAVQAAVSNLVRVGKETVQTTEDQILKRDMPPAFIKVENACTKLVRAAQMLQADPYSVPARDYLIDGSRGILSGTSDLLLTFDEAEVRKIIRVCKGILEYLTVAEVVETMEDLVTYTKNLGPGMTKMAKMIDERQQELTHQEHRVMLVNSMNTVKELLPVLISAMKIFVTTKNTKSQGIEEALKNRNFTVEKMSAEINEIIRVLQLTSWDEDAWA
notes: vinculin D1 domain, residues 1–259; the methods name chicken vinculin just before it
In series [2], B3 showed a Kd of 26 nM and a dH of 6.7 kcal/mol. In series [1], this molecule showed a Kd of 4.1 nM and a dH of 7.7 kcal/mol.

B4: αE-catenin 82–883 (C116S) (domain or fragment, murine, UniProt P26231 82-883, looked up)
chain: ESQFLKEELVVAVEDVRKQGDLMKSAAGEFADDPSSSVKRGNMVRAARALLSAVTRLLILADMADVYKLLVQLKVVEDGILKLRNAGNEQDLGIQYKALKPEVDKLNIMAAKRQQELKDVGNRDQMAAARGILQKNVPILYTASQACLQHPDVAAYKANRDLIYKQLQQAVTGISNAAQATASDDAAQHQGGSGGELAYALNNFDKQIIVDPLSFSEERFRPSLEERLESIISGAALMADSSCTRDDRRERIVAECNAVRQALQDLLSEYMGNAGRKERSDALNSAIDKMTKKTRDLRRQLRKAVMDHVSDSFLETNVPLLVLIEAAKNGNEKEVKEYAQVFREHANKLIEVANLACSISNNEEGVKLVRMSASQLEALCPQVINAALALAAKPQSKLAQENMDLFKEQWEKQVRVLTDAVDDITSIDDFLAVSENHILEDVNKCVIALQEKDVDGLDRTAGAIRGRAARVIHVVTSEMDNYEPGVYTEKVLEATKLLSNTVMPRFTEQVEAAVEALSSDPAQPMDENEFIDASRLVYDGIRDIRKAVLMIRTPEELDDSDFETEDFDVRSRTSVQTEDDQLIAGQSARAIMAQLPQEQKAKIAEQVASFQEEKSKLDAEVSKWDDSGNDIIVLAKQMCMIMMEMTDFTRGKGPLKNTSDVISAAKKIAEAGSRMDKLGRTIADHCPDSACKQDLLAYLQRIALYCHQLNICSKVKAEVQNLGGELVVSGVDSAMSLIQAAKNLMNAVVQTVKASYVASTKYQKSQGMASLNLPAVSWKMKAPEKKPLVKREKQDETQTKIK
notes: Crystallised as a homodimer; source: E. coli BL21, purified (glutathione-agarose, TEV cleavage, Mono Q, SEC); not shown: GST, N-terminal, cleaved
As to B4, the binding result in series [3] is given as “binds”. In series [4], B5 gave a dissociation constant Kd of 14 nM.

Source of the values: PMC6814714, “Binding partner- and force-promoted changes in αE-catenin conformation probed by native cysteine labeling” (Scientific Reports, 2019).
